Data as given in US8835136B2, “Engineered amine dehydrogenases and methods of use thereof” (Georgia Tech Research Corporation, priority 2012, dated 2014).
Several values for one entry are separate records, joined by “and”; a condition that tells them apart may be missing. Equal values may be shown once.

Legend:
[1] = C1-AmDH amination at 60° C. in 4 M ammonium formate buffer; type: biochemical; conditions: 20 mM
Experimental: (§1) All ketone substrates for the amination direction were measured at 20 mM and dissolved at 60° C. in 4 M ammonium formate buffer. Enzyme specificity was measured at 60° C. for 5 min. with NADH as the cofactor at 340 nm.

[2] = Temperature vs activity profile for C1-AmDH; type: biochemical
Experimental: The temperature activity profile was determined over a wide range until the limits of the instrument were reached. […] In contrast it is barely active between 20-30° C., so all measurements for activity were determined routinely at 60° C. Product conversions were done at 40° C. and 50° C., due to the temperature limits for regeneration enzyme, FDH. Temperature activity profiles were determined for pFPA and acetophenone (FIGS. 22A and 22B).

[3] = C1-AmDH amine activity measured photometrically; type: biochemical
Experimental: Activities were also measured photometrically with 100 mM (+/−) methylhenzylamine (0.58 U/mg) as well as 100 mM (R)-methylbenzylamine. (0.98 U/mg), 50 mM (R,S)-adamanylethlamine (0.04 U/mg) and determined the enantioselectivity for this enzyme to be (R).

[4] = T50 after 30 min (T50^30) of C1-AmDH; type: physicochemical
Experimental: The T50 (after 30 min—T50^30) was also determined for the C1-AmDH. The T50^30 value was determined to be dependent on the buffer, in PBS, the enzyme was staple for 30 min at 50 C, at 60 C an beyond the enzyme deactivated within the timescale of the experiment. In the presence of 4M ammonium formate buffer we found the T50^30 value was determined to be at 70 C.

[5] = C1-AmDH amination at 60° C. in 4 M ammonium formate buffer; type: biochemical
Experimental: as §1
(§2) The values for acetophenone, pFPA; NADH and NH3 were determined and are summarized in Table XX, all measured at 60° C.

[6] = Substrate conversion using C1-AmDH and cb-FDH, chiral GC; type: biochemical
Experimental: Product formation was characterized for two substrates. The test assay utilized the C1-AmDH in 24 h conversion at 40° C. with cofactor regeneration in a biphasic solvent system with heptane as the organic layer and 5 M ammonium formate as the aqueous layer. Conversions were also carried out at 50° C., which is the upper limit for the cofactor regeneration enzyme FDH.
This is not a quantitative evaluation, since amines are more water soluble than their ketone counterparts and only the organic layer was used for chiral gas chromatography (GC). The peaks were compared to the corresponding standard amines and both determined to be R-specific (FIGS. 24A and 24B).

[7] = C1-AmDH kinetic values; type: biochemical; conditions: 60° C.
Experimental: as §2

B1: C1-AmDH: chimeric AmDH: F-AmDH substrate binding domain with L-AmDH NAD-binding domain, SEQ ID NO:20 (protein)
chain: SLVEKTSIIKDFTLFEKMSEHEQVVFCNDPATGLRAIIAIHDTTLGPALGGCRMQPYNSVEEALEDALRLSKGMTYSCAASDVDFGGGKAVIIGDPQKDKSPELFRAFGQFVDSLGGRFYTGTDMGTNMEDFIHAMKETNCIVGVPEAYGSSGNPSPATAYGVYRGMKAAAKEAFGSDSLEGKVVAVQGVGNVAYHLCRHLHEEGAKLIVTDINKEAVARAVEEFGAKAVDPNDIYGVECDIFAPCALGGIINDQTIPQLKAKVIAGSALNQLKEPRHGDMIHEMGIVYAPDYVINAGGCINVADELYGYNRERAMKKIEQIYDNIEKVFAIAKRDNIPTYVAADRMAEERIETMRKARSQFLQNGHHILSRRRAR
1,3-phenylbutanedione, U/mg [1]: 0.06 U/mg | 1,3-phenylbutanedione, U/ml [1]: 0.3 U/ml | 3-methyl-1-phenylbutanone, U/mg [1]: 0.03 U/mg | 3-methyl-1-phenylbutanone, U/ml [1]: 0.16 U/ml | 3-oxo-phenylbutyricacid ethylester, U/mg [1]: 0 U/mg | 3-oxo-phenylbutyricacid ethylester, U/ml [1]: 0 U/ml | Adamantylmethylketone, U/mg [1]: 0.07 U/mg | Adamantylmethylketone, U/ml [1]: 0 U/ml | Benzophenone, U/mg [1]: 0 U/mg | Benzophenone, U/ml [1]: 0 U/ml | a-tetralone, U/mg [1]: 0.1 U/mg and 0.1074 U/mg | a-tetralone, U/ml [1]: 0.58 U/ml | b-tetralone, U/mg [1]: 0 U/mg | b-tetralone, U/ml [1]: 0 U/ml | dibenzylketone, U/ml [1]: 1.39 U/ml | pinacolone, U/mg [1]: 0.1333 U/mg | pinacolone, U/ml [1]: 0.72 U/ml | temperature activity profile [2]: did not show any decline of activity up to 80 °C | enantioselectivity [3]: (R) | activity, (R,S)-adamanylethlamine ([3]; 50 mM): 0.04 U/mg | activity, (+/−) methylhenzylamine ([3]; 100 mM): 0.58 U/mg | activity, (R)-methylbenzylamine ([3]; 100 mM): 0.98 U/mg | T50^30 value ([4]; 4M ammonium formate buffer, 30 min): 70 C | temperature at which stable for 30 min ([4]; in PBS): 50 C | kcat, Acetophenone [5]: 0.24 s⁻¹ | kcat, pFPA [5]: 1.24 s^−1 | Acetophenone, U/mg ([5]; 20 mM, 4 M ammonium formate): 0.3 U/mg and 0.3019 U/mg | Acetophenone, U/ml ([5]; 20 mM, 4 M ammonium formate): 1.63 U/ml | pFPA, U/mg ([5]; 20 mM, 4 M ammonium formate): 1.7 U/mg and 1.725 U/mg | pFPA, U/ml ([5]; 20 mM, 4 M ammonium formate): 13.8 U/ml | Km ([5]; read-out: KM, Acetophenone): 5200 µM | Km ([5]; read-out: KM, pFPA): 1100 µM | product formation from methylcyclohexanone ([6]; 24 h, 40° C., heptane / 5 M ammonium formate): no product | enantiospecificity of product amines ([6]; methylbenzylamine and p-fluorophenylproplyamin, chiral GC, organic layer): R-specific | kcat, NADH [7]: 0.92 s⁻¹ | kcat, NH3 [7]: 1.09 s⁻¹ | Km ([7]; read-out: KM, NADH): 40 µM
